Measurements: patent US20240083986A1 (published 2024)
Each block holds one binder with its values, some of them ahead of it.

Legend:
[1] = target: T1, Apple (Mal d 1, MyBiosource, Cat #MBS1224919) (Apple, UniProt P43211 2-159, limits assumed); assay: SPR Biacore, 25C;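 further: binding of related allergens to purified monoclonal anti-Bet v 1 antibodies by surface plasmon resonance in HEPES-buffered saline pH 7.4, kinetics fitted to a 1:1 model with mass transport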
T1 construct: Bought reagent
T1 sequence (looked up): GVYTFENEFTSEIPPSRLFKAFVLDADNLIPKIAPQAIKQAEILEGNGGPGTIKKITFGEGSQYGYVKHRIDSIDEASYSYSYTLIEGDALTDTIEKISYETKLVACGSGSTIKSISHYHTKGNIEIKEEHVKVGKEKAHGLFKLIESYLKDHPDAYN

[2] = target: T2, Alder (Aln g 1, MyBiosource, Cat #MBS1041484) (Alder, UniProt P38948 2-160, limits assumed); assay: SPR Biacore, 25C;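 further: binding of related allergens to purified monoclonal anti-Bet v 1 antibodies by surface plasmon resonance in HEPES-buffered saline pH 7.4, kinetics fitted to a 1:1 model with mass transport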
T2 construct: Bought reagent
T2 sequence (looked up): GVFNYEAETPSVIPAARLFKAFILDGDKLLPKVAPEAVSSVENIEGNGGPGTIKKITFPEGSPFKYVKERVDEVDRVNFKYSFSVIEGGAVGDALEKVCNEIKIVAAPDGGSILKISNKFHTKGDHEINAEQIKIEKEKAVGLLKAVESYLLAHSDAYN

[3] = target: T3, Celery (Api g 1, MyBiosource, Cat #MBS1171376) (Celery, UniProt P49372 1-154, limits assumed); assay: SPR Biacore, 25C;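 further: binding of related allergens to purified monoclonal anti-Bet v 1 antibodies by surface plasmon resonance in HEPES-buffered saline pH 7.4, kinetics fitted to a 1:1 model with mass transport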
T3 construct: Bought reagent
T3 sequence (looked up): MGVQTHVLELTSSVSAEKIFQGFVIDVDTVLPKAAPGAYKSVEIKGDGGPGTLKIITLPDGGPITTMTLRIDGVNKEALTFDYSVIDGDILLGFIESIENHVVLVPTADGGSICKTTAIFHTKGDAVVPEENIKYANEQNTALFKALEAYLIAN

[4] = target: T4, European Hornbeam (Car b 1 isoform 1A & 1B, MyBiosource, Cat #MBS1200018) (European Hornbeam, UniProt P38949 2-160); assay: SPR Biacore, 25C;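 further: binding of related allergens to purified monoclonal anti-Bet v 1 antibodies by surface plasmon resonance in HEPES-buffered saline pH 7.4, kinetics fitted to a 1:1 model with mass transport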
T4 construct: Bought reagent
T4 sequence (looked up): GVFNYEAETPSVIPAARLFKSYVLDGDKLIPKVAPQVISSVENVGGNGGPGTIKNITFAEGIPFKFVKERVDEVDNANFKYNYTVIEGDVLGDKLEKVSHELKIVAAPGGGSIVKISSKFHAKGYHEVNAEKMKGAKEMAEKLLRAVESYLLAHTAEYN

[5] = target: T5, European Hornbeam (Car b 1 isoform 2, MyBiosource, Cat #MBS1043940) (European Hornbeam, UniProt P38950 2-160, limits assumed); assay: SPR Biacore, 25C
T5 construct: Bought reagent
T5 sequence (looked up): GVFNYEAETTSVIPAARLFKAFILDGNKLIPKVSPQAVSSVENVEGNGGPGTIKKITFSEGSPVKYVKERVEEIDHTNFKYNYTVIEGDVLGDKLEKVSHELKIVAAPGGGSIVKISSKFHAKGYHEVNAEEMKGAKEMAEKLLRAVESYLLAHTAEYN

mutant Bet v 1-MMH = target: T6, mutant Bet v 1-MMH (Betula verrucosa (European white birch, …)); assay: SPR Biacore, 25C and 37C
T6 construct: also called CHO produced recombinant Bet v 1 containing a S85A mutation with a C-terminal myc-myc hexahistidine tag
T6 chain: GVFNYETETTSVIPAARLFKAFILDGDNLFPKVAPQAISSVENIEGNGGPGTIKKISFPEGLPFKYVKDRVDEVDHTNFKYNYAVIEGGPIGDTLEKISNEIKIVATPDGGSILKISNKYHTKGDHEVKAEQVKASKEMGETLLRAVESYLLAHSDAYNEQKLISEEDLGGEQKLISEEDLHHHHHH

[6] = target: T7, natural Bet v 1 (Indoor, Cat #NA-BV1-1) (Betula verrucosa (European white birch, …, UniProt P15494 2-160)); assay: SPR Biacore, mAb captured on anti-hFc, 37C;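 further: purified anti-Bet v 1 monoclonal antibodies, HBS-ET running buffer pH 7.4, rate constants from 1:1 model fit with mass transport limitation, KD and t½ calculated from kinetic constants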
T7 construct: Bought natural protein purified from birch pollen; also called nBet v 1
T7 sequence: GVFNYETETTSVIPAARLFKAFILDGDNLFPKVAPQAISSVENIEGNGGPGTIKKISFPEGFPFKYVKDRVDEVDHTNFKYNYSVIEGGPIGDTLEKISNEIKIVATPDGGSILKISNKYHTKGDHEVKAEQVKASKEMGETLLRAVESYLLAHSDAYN

[7] = target: T7, natural Bet v 1 (Indoor, Cat #NA-BV1-1); assay: SPR Biacore, mAb captured on anti-hFc, 25C;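 further: rate constants from sensorgrams fitted to a 1:1 model with mass transport limitation, KD and t½ derived from kinetic constants, run in HBS-ET buffer at pH 7.4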
[8] = target: T7, natural Bet v 1 (Indoor, Cat #NA-BV1-1); assay: cell-based or functional assay
natural Bet v 1 [9] = target: T8, natural Bet v 1 (Betula verrucosa (Betula pendula), UniProt P15494 2-160); assay: blocking ELISA, biotin nBet v 1 to captured IgE, donor 26532-CC
T8 construct: bought natural protein (Indoor Biotechnologies #NA-BV1-1); also called nBet v 1; Biotinylated Bet v 1
T8 chain: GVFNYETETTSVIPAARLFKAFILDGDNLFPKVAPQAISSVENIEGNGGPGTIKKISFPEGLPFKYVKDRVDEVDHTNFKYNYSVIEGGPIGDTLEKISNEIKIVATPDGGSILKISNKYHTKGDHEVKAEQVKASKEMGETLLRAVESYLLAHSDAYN

natural Bet v 1 [10] = target: T8, natural Bet v 1; assay: blocking ELISA, biotin nBet v 1 to captured IgE, donor 22627-MN
natural Bet v 1 [11] = target: T8, natural Bet v 1; assay: blocking ELISA, biotin nBet v 1 to captured IgE, donor 25414-CW
natural Bet v 1 [12] = target: T8, natural Bet v 1; assay: blocking ELISA, biotin nBet v 1 to captured IgE, donor 25340-RR
natural Bet v 1 [13] = target: T8, natural Bet v 1; assay: blocking ELISA, biotin nBet v 1 to captured IgE, donor 23939-MH
natural Bet v 1 [14] = target: T8, natural Bet v 1; assay: dose-response blocking ELISA, biotin nBet v 1 to captured IgE, donor 25340-RR
natural Bet v 1 [15] = target: T8, natural Bet v 1; assay: blocking ELISA, biotin nBet v 1 to captured IgE, donor 25609-MS
natural Bet v 1 [16] = target: T8, natural Bet v 1; assay: dose-response blocking ELISA, biotin nBet v 1 to captured IgE, donor 23939-MH
natural Bet v 1 [17] = target: T8, natural Bet v 1; assay: blocking ELISA, biotin nBet v 1 to captured IgE, donor 23658-MD
natural Bet v 1 [18] = target: T8, natural Bet v 1; assay: blocking ELISA, biotin nBet v 1 to captured IgE, donor 23035-BL
natural Bet v 1 [19] = target: T8, natural Bet v 1; assay: blocking ELISA, biotin nBet v 1 to captured IgE, donor 25299-RJ
natural Bet v 1 [20] = target: T8, natural Bet v 1; assay: dose-response blocking ELISA, biotin nBet v 1 to captured IgE, donor 25609-MS
natural Bet v 1 [21] = target: T8, natural Bet v 1; assay: blocking ELISA, biotin nBet v 1 to captured IgE, donor 29718-MW

binding result [1]: no binding (tested: 100 nM)
binding result [2]: no binding (tested: 100 nM)
binding result [3]: no binding (tested: 100 nM)
binding result [4]: no binding (tested: 100 nM)
binding result [5]: no binding (tested: 100 nM)
binding result (mutant Bet v 1-MMH): no binding (tested: 100 nM)
100 nM natural Bet v 1 Bound (RU) [6]: 45 RU
Kd [6]: 14.3 nM
koff [6]: 0.000719 s⁻¹
kon [6]: 50400 M⁻¹ s⁻¹
t½ [6]: 16 min
100 nM natural Bet v 1 Bound (RU) [7]: 27 RU
Kd [7]: 3.98 nM
koff [7]: 0.000149 s⁻¹
kon [7]: 37600 M⁻¹ s⁻¹
t½ [7]: 77 min
B1: H4H16967P (antibody, human IgG4, V domains shown)
VH: QVQLVESGGGVVQPGRSLRLSCAASGFTFSSYGMHWFRQAPGKGLEWVGVIWSDGSDKKYADSVKGRFTISRDNSKNTLYLLMNSLRDDDTAVYHCAREGGFLYSSSSHFDYWGQGTLVTVSS
VL: AIQMTQSPSSLSASVGDRVTITCRTSQGIRNDLGWYQQKPGKAPKLLIFAASSLQSGVPSRFSGSGSGTDFTLTISSLQPEDFAIYYCLQDYKYPFTFGGGTKVEIK

blockade of basophil activation (phospho-Erk MFI in basophils of PBMCs of birch allergic donors, 100 pM natural Bet v 1) [8]: 70%
100 nM natural Bet v 1 Bound (RU) [6]: 83 RU
Kd [6]: 2.43 nM
t½ [6]: 6.3 min
100 nM natural Bet v 1 Bound (RU) [7]: 72 RU
Kd [7]: 1.09 nM
B2: H4H17082P2 (antibody, human IgG4 S228P, kappa, V domains shown)
VH: QVQLVQSGAEVKKPGASVKVSCKASGYTFISYNIFWVRQATGQGLDWMGWMNPFRNNAGYAQKFQGRVTVTWDTSISTAYMELSSLSSEDTAIYYCAREHGSSWGFFDYWGQGTLVTVSS
VL: not shown
notes: human IgG4; also called REGN5715; MAB2

Percent Blocking (at 1 µg/mL each antibody) (natural Bet v 1 [9]): 4%
Percent Blocking (at 1 µg/mL each antibody) (natural Bet v 1 [10]): 12%
Percent Blocking (at 1 µg/mL each antibody) (natural Bet v 1 [11]): -4%
Percent Blocking (at 1 µg/mL each antibody) (natural Bet v 1 [12]): 15%
Percent Blocking (at 1 µg/mL each antibody) (natural Bet v 1 [13]): 16%
Percent Blocking (at 1 µg/mL each antibody) (natural Bet v 1 [14]): 11.1%
Percent Blocking (at 1 µg/mL each antibody) (natural Bet v 1 [15]): 16%
Percent Blocking (at 1 µg/mL each antibody) (natural Bet v 1 [16]): 19.6%
Percent Blocking (at 1 µg/mL each antibody) (natural Bet v 1 [17]): 27%
Percent Blocking (at 1 µg/mL each antibody) (natural Bet v 1 [18]): -46%
Percent Blocking (at 1 µg/mL each antibody) (natural Bet v 1 [19]): 9%
Percent Blocking (at 1 µg/mL each antibody) (natural Bet v 1 [20]): 21.6%
Percent Blocking (at 1 µg/mL each antibody) (natural Bet v 1 [21]): 13%
B3: H4H16987P (antibody, human IgG4 S228P, kappa, V domains shown)
VH: EVQLVESGGGLVQPGGSLRLSCAASGFTVSSNSMSWVRQAPGEGLEWVSVIFSGGITYYSDSVKGRFTISRHNSKNTLYLQMNSLRTEDTAVYYCARHSNWNFDAFDIWGQGTMVTVSS
VL: DIQMTQSPSSLSASVGDRVTITCRASQSFDTYLNWYQQKPGKAPNLLIYATSSLQSGVPSRFSGSGSGTDFTLTISSLQPEDFGTYYCQQSYSIPYTFGQGTKLEIKR
notes: fully human, human IgG4 Fc (H4H prefix); also called MAB4
